Source: US20200140517A1 (CASE WESTERN RESERVE UNIVERSITY, published 2020)
“And” between values parts separate entries of the source, which are not always exact repeats. Equal entries are not always repeated. Positions of bridges follow the written chain, without caps; N, C: chain ends. No end group written: not given here.

How the values were obtained:
[1] = target: T1, A isoform of the insulin receptor (UniProt P06213-2 28-1370, limits assumed); assay: receptor binding affinity, method not described; reference: human insulin; data not shown
T1 construct: also called IR-A

[2] = substrate: B isoform of the insulin receptor (UniProt P06213); assay: receptor binding affinity, method not described; reference: wild type human insulin

B1: 4SS 81-04 (SCI-2; 57-mer single-chain insulin analogue with fourth disulfide bridge, cystine B4-A10) (ligand)
chain: FVNCHLCGSHLVEALYLVCGERGFFYTDPTEEGPRRGIVEQCCHSCCSLEQLENYCN
modifications: disulfide 4-46; also: three canonical disulfides, pairing not given here
notes: Single polypeptide chain (B domain, 6-residue C domain EEGPRR, A domain), expressed in Pichia pastoris; Cys at B4 and A10 form a fourth disulfide bridge beside the three canonical ones; also called 57mer SCI-2
B1 was tested, and the “affinity relative to human insulin” value [1] was 120 percent and the fold reduction of affinity relative to wild type human insulin [2] was 5 fold and 10 fold.
